Target: HLA class II molecules on the Burkitt lymphoma line Raji

B1: LAG-3 protein (Lymphocyte Activation Gene-3), mature membrane protein of 470 amino acids (receptor)
chain: VPVVWAQEGAPAQLPCSPTIPLQDLSLLRRAGVTWQHQPDSGPPAAAPGHPLAPGPHPAAPSSWGPRPRRYTVLSVGPGGLRSGRLPLQPRVQLDERGRQRGDFSLWLRPARRADAGEYRAAVHLRDRALSCRLRLRLGQASMTASPPGSLRASDWVILNCSFSRPDRPASVHWFRNRGQGRVPVRESPHHHLAESFLFLPQVSPMDSGPWGCILTYRDGFNVSIMYNLTVLGLEPPTPLTVYAGAGSRVGLPCRLPAGVGTRSFLTAKWTPPGGGPDLLVTGDNGDFTLRLEDVSQAQAGTYTCHIHLQEQQLNATVTLAIITVTPKSFGSPGSLGKLLCEVTPVSGQERFVWSSLDTRSQRSFSGPWLEAQEAQLLSQPWQCQLYQGERLLGAAVYFTELSSPGAQRSGRAPGALPAGHLLLFLTLGVLSLLLLVTGAFGFHLWRRQWRPRRFSALEQGIHPRRLRAR
B1 showed a rosette formation / adhesion of Raji cells to transfected COS-7 cells of 23%.

— patent US5976877
